# Assay results taken from paper PMC10027511 (2023).
# T1: Sos site 2 peptide site 2 peptide (Drosophila melanogaster, UniProt P26675)
# T1 chain: GELSPPPIPPRL
# Key:
# [1] = target: T1, Sos site 2 peptide site 2 peptide; assay: 19F NMR lineshape analysis, 45 °C
# [2] = target: T1, Sos site 2 peptide site 2 peptide; assay: 19F NMR lineshape analysis, 15 °C
# [3] = target: T1, Sos site 2 peptide site 2 peptide; assay: 19F NMR lineshape analysis, 35 °C
# [4] = target: T1, Sos site 2 peptide site 2 peptide; assay: 19F NMR lineshape analysis, 25 °C
# [5] = target: T1, Sos site 2 peptide site 2 peptide; assay: 19F NMR lineshape analysis, 4.2 °C
binder,measurement,setting,value
Drk N-terminal SH3 domain N-terminal SH3 (protein) MEAIAKHDFSATADDELSFRKGQILKILNMEDDSNWYRAELDGKEGLIPSNYIEMKNH,Kd,[1],110 µM
same,Kd,[2],17 µM
same,Kd,[3],59 µM
same,Kd,[4],33 µM
same,Kd,[5],9 µM
